Measurements reported in patent publication US20260125454A1 (SHANGHAI JUNSHI BIOSCIENCES, published 2026).
Residue numbers refer to the chain shown, from its start.

T1: Biotin-huCGRPaSA (human, not fully specified; biotin (position not given))
T1 construct: exact construct ('aSA') not explained; also called Biotin CGRPaSA; full-length (1-37) CGRP
T1 peptide: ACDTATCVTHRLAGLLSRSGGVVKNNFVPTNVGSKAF

B1: hu233 (antibody, V domains shown)
VH: QVQLVQSGSELKKPGASVKVSCKASGYTFTGYTMNWVRQAPGQGLEWMGLINPYIGNTHYNQKFKDRFVFSVDRSSSTAYLQISSLKAEDTAVYYCARELDSGFDYWGQGTLVTVSS
VL: DVVMTQSPDSLAVSLGERATINCRSSQNIVHSNADTYLEWYQQKPGQPPKLLIYKVSNRFSGVPDRFSGSGSGTDFTLTISSLQAEDVAVYYCYQGSHVPWTFGQGTKLEIK
notes: 3C1 HC-3/3C1 LC-4
B2: hu231 (antibody, human IgG4 S228P, kappa, V domains shown)
VH: B1 VH
VL: DVVMTQTPLSLSVTPGQPASISCRSSQNIVHSNGDTYLEWYLQKPGQSPQLLIYKVSNRFSGVPDRFSGSGSGTDFTLKISRVEAEDVGVYYCYQGSHVPWTFGQGTKLEIKR
B3: hu237 (antibody, V domains shown)
VH: QVQLVQSGAEVKKPGASVKVSCKASGYTFTGYTMNWVRQAPGQGLEWMGLINPYIGNTHYNQKFKDRVTFTVDRSSSTAYMELSRLRSDDTAVYYCARELDSGFDYWGQGTLVTVSS
VL: B1 VL
notes: 3C1 HC-4/3C1 LC-4
B4: hu236 (antibody, V domains shown)
VH: B3 VH
VL: B1 VL with A34G
notes: 3C1 HC-4/3C1 LC-3
B5: hu38 (antibody, V domains shown)
VH: QVQLVQSGAEVKKPGASVKVSCKASGYTFIDFNMHWVRQAPGQRLEWMGYIYPYNGDVVYNQNFTNRVTLTVDTSSSTAYMELSSLRSEDTAVYYCAREGLGGYWGQGTLVTVSS
VL: DIVLTQSPDSLAVSLGERATINCKASQNIDYGGYSYMNWYQQKPGQPPKVLIYSVFNLESGVPDRFSGSGSGTDFTLTISSLQAEDVAVYYCQQSNEAPYTFGQGTKLEIK
notes: 1F5 HC-1/3H10 LC2-1

Molecular target: CGRP antigen
Test: cell-based or functional assay

IC50 [µg/mL] | relative activity (%) vs C245 [%] | relative activity (%) vs Ref(TEVA) [%] | Binder
0.0877 | 30 | – | B1
0.0284 | 91 | – | B2
0.129 | 22 | – | B3
0.0514 | 55 | – | B4
0.0725 | – | 50 | B5

Molecular target: T1, Biotin-huCGRPaSA
Test: ELISA, supernatant; relative to chimeric C245
Method in brief: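 Antibodies, including reference chimeric C245, titrated 2.5-fold from 1000 ng/mL and incubated 60 min at 37°C on wells coated with 1.0 μg/mL biotin-CGRPaSA and blocked with 2% BSA. Bound IgG detected with HRP anti-human Fc antibody and TMB, acid-stopped, absorbance 450/620 nm.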

Relative binding activity, % [%] | Binder
68 | B1
68 | B2
65 | B3
68 | B4
139 | B5
